From patent US8623997B2, “Variant Hhip1 protein and methods and uses thereof” (Curis, Inc., priority 2008, dated 2014)
Blank lines part the entries; values can stand above or below the molecule they belong to. Bridge positions count the residues as written; N and C are the ends. Ends that are not written are not given here.

How the values were obtained:
[1] = target: T1, Shh (Homo sapiens, UniProt Q15465); assay: NMR HSQC spectroscopy of labeled Shh with L2 loop peptides; format: binding; conditions: 2 mM of each peptide
T1 construct: yielding Shh (residues 29-197) lacking the His6-Tag; His6 (N, cleaved yes); made in house; host or cells: E. coli Rosetta 2, minimal/M9 medium with 15NH4Cl
Excerpt: Shh is in the same orientation as in the Hhip-Shh complex in Panel A. Zn^2+ and Ca^2+ cations are shown. […] Surface representation of Shh with residues within 4.5 Å of Hhip (shaded gray) and Cdon (hatched areas). Area within dotted boarder indicates the boundaries of the Cdon footprint, which overlaps the Hhip binding surface. […] Shh histidine residues are shown as sticks with nitrogen atoms shaded dark. The Hhip L2 loop is shown in transparent surface and Zn^2+ cation is shown. Histidine 35 is not shown since the ordered portion of the Shh structure begins at L40. […] The spectral region of the histidine side chains is shown. […] The average mean Shh649 fluorescence intensity (MFI) of two independent dilution series was plotted versus protein concentration, with error bars denoting standard deviations. Ctrl refers to the His-6 (SEQ ID NO: 87) tagged HGF β protein. […] Shh649 (0.33 nM) was preincubated with 56 nM (170-fold excess) of Hhipβ12 wildtype or L2 mutant proteins, 5E1 or controls then bound to Ptch1 cells (black) or 293 cells (gray), washed and analyzed by FACS. Shh649 binding to Ptch1 cells in the absence of inhibitors was normalized to 100% and the data expressed as a percentage of this signal (average of two independent duplicates with standard deviations). Ctrl and CtrlFc refer to HGF β and the IgG1 isotype control Trastuzumab, respectively. […]

[2] = system: Ptch1; assay: FACS assay of Shh649 binding to Ptch1 expressing 293 cells and its competition; parameters: species or system human
Method: (§1) Shh649 (1 nM) preincubated with indicated proteins was bound to Ptch1 expressing cells, washed and analyzed by FACS. The average mean Shh649 fluorescence intensity (MFI) of two independent dilution series was plotted versus inhibitor concentration, with error bars denoting standard deviations. […] Assays were carried out using octylated Ihh wildtype and T154I proteins. Concentration dependent relative luciferase units (RLU) are plotted as the average of four independent dilution series±standard deviation and normalized to the maximal Ihh WT stimulation on each plate as 100%. […] The data is representative of three independent experiments.
Shh is in the same orientation as in the Hhip-Shh complex in Panel A. Zn^2+ and Ca^2+ cations are shown. […] Surface representation of Shh with residues within 4.5 Å of Hhip (shaded gray) and Cdon (hatched areas). Area within dotted boarder indicates the boundaries of the Cdon footprint, which overlaps the Hhip binding surface. […] Shh histidine residues are shown as sticks with nitrogen atoms shaded dark. The Hhip L2 loop is shown in transparent surface and Zn^2+ cation is shown. Histidine 35 is not shown since the ordered portion of the Shh structure begins at L40. […] The spectral region of the histidine side chains is shown. […] The average mean Shh649 fluorescence intensity (MFI) of two independent dilution series was plotted versus protein concentration, with error bars denoting standard deviations. Ctrl refers to the His-6 (SEQ ID NO: 87) tagged HGF β protein. […] Shh649 (0.33 nM) was preincubated with 56 nM (170-fold excess) of Hhipβ12 wildtype or L2 mutant proteins, 5E1 or controls then bound to Ptch1 cells (black) or 293 cells (gray), washed and analyzed by FACS. Shh649 binding to Ptch1 cells in the absence of inhibitors was normalized to 100% and the data expressed as a percentage of this signal (average of two independent duplicates with standard deviations). Ctrl and CtrlFc refer to HGF β and the IgG1 isotype control Trastuzumab, respectively. The data is representative of at least three independent experiments.
(§2) Shh649, conjugated to Dylight 649 (Pierce) at its C-terminus (vide supra), was incubated at 0.33 or 1 nM for 1 h on ice with various Hhip or control proteins prior to incubation with HEK-293 cells (293) or 293 cells expressing full length human Patched-1 (Ptch1-293 clone 10) (Carpenter D. et al. (1998) Proc. Natl. Acad. Sci. USA 95:13630-13634) in FACS buffer (3% FBS in PBS) for 1 h on ice. After washing 3 times in FACS buffer, live cells (sorted by propidium iodide exclusion) were analyzed by flow cytometry in the APC channel using a FACSCalibur (BD Biosciences). Control proteins included His6-Shh, His6-Ihh, HGF β-His639, Trastuzumab (Genentech, Inc.) as a human IgG1 isotype control for Hhip1β12-Fc, and mIgG1 (Molecular Probes Z25105) as a murine Mab control for anti-Shh 5E1 Mab34.

[3] = target: Hh signaling; assay: S12 Gli luciferase assay, activation of Hh signaling; format: cell-based, murine; conditions: octylated Ihh wildtype and T154I proteins
Method: as §1
Briefly, S12 cells, which are 10T1/2 fibroblasts stably transfected with 8× Gli-binding sites fused to a luciferase reporter (Frank-Kamenetsky et al. (2002) J. Biol. 1:10), were plated at 10,000 cells/well of a white-walled clear bottomed 96-well plate (Costar 3610) for 48 hrs in regular growth medium (HG-DMEM, 10% FBS, 1% glutamine). After 24 h, the media was removed and Shh-producing HT29 cells at 20,000 cells/well were plated and the co-culture was grown in regular media. […] Gli-luciferase activity was measured using a HTS-Steady Lite luciferase detection kit (Perkin Elmer); multiple assays were carried out, each in triplicate. […]

[4] = system: Shh signaling; assay: Gli-luciferase co-culture signaling assay (S12 fibroblasts overlaid with Shh-producing HT29 cells); format: cell-based, murine S12 fibroblasts / human HT29 cells; conditions: for IC50: 24 hrs, read-out: IC50 inhibition of Shh signaling
Excerpt: Due to the lack of both N- and C-terminal lipid modifications of Shh and the absence of other cellular components, the in vitro assays may not fully recapitulate Hip-Shh interactions occurring in a cellular environment. Therefore, a co-culture assay consisting of murine S12 fibroblasts stably transfected with a Gli luciferase reporter gene and (Frank-Kamenetsky et al. (2002) J. Biol. 1:10) and human colorectal adenocarcinoma HT29 cells that secrete fully lipid-modified Shh (Yauch et al. (2008) Nature 455:406) was used to determine which extracellular domains of Hhip1β12 mediate inhibition of Shh signaling in mammalian cells.
Briefly, S12 cells, which are 10T1/2 fibroblasts stably transfected with 8× Gli-binding sites fused to a luciferase reporter (Frank-Kamenetsky et al. (2002) J. Biol. 1:10), were plated at 10,000 cells/well of a white-walled clear bottomed 96-well plate (Costar 3610) for […] in regular growth medium (HG-DMEM, 10% FBS, 1% glutamine). After 24 h, the media was removed and Shh-producing HT29 cells at 20,000 cells/well were plated and the co-culture was grown in regular media. After 24 h, the media was changed to 0.5% serum HG-DMEM±Hhip1β12 fragments and further incubated for 24 hrs to stimulate signaling. Gli-luciferase activity was measured using a HTS-Steady Lite luciferase detection kit (Perkin Elmer); multiple assays were carried out, each in triplicate. Data were fit to a 4-parameter sigmoidal equation, from which the IC50 was derived using Kaleidagraph (Synergy Software).

[5] = target: T2, biotinylated-ShhN-Cys (Homo sapiens, UniProt Q15465); assay: Bio-layer interferometry (Octet) binding kinetics of Hhip1β12 variants to Shh
T2 construct: ShhN-Cys (residues 24-197); His6 (N); made in house; host or cells: E. coli Rosetta 2
Method: The binding kinetics of the Hhip1β12 fragments as well as Hhip1β12 mutants were measured by bio-layer interferometry in the presence or absence of 10 mM EDTA on an Octet (Fortébio). Streptavidin high binding FA biosensors were loaded with biotinylated-ShhN-Cys in kinetic buffer (Fortébio). The loaded biosensors were washed and transferred to wells containing Hhip1β12 protein at concentrations of 1.2, 1.0, 0.8 and 0.6 μM in kinetic buffer. Hhip1β12 association and dissociation was measured for 30 and 20 min, respectively. Kinetic parameters (kon and koff) and affinities (KD) were calculated from a non-linear fit of the data based on a 1:1 binding model between Hhip1β12 and Shh using the Octet software. Multiple independent measurements were performed.
In order to assess the contribution of residues in the Hhip1 L1, L2 and L3 loops for binding to Shh, a series of single alanine Hipβ12 mutants were made using the QuickChange DNA mutagenesis kit (Stratagene) using the manufacturer's protocol, and their affinity for Shh was measured by bio-layer interferometry (as described in Example 2B). These mutations included Hhip1β12 mutants 1312A, E381A, M382A, D383A, D378A, T418A, Q420A, E380A, D387A and ΔL2.

[6] = target: T3, Shh649 binding to Hhip1β12 on 293 cells (Homo sapiens, UniProt Q15465); assay: FACS: Ptch1-independent recruitment of Shh649 to 293 cells by Hhip1β12; conditions: 520 nM
T3 construct: made in house; host or cells: Shh649: E. coli Rosetta 2; Hhip1β12: Tni insect cells; both added to HEK-293 cells
Excerpt: The critical residue for 5E1 binding, S177 shown marked with an asterisk (*), resides in the area of Shh that interacts with both Hhip and Ptch1. Numbering refers to human Shh (Fuse, N. et al. (1999) Proc. Natl. Acad. Sci. USA 96:10992-10999; Pepinsky R. B. et al. (2000) J. Biol. Chem. 275:10995-11001). […] Black bars show binding to Ptch1 cells for comparison. Data are the average mean fluorescence intensity and SDs of two independent (duplicate and triplicate) experiments normalized to Shh649 binding to Ptch1 cells in the absence of other proteins (“Ctrl”) in the same way as FIG. 15J. Shh649 and Hhip1β12 are present at 45- and 10-fold higher concentrations respectively than in FIG. 15J in order to detect the Ptch1-independent binding of Shh649 to Hhip1β12.
as §2, with “Control proteins included His6-Shh, His6-Ihh, HGF β-His639, Trastuzumab (Genentech, Inc.) as a human IgG1 isotype control for Hhip1β12-Fc, and mIgG1 (Molecular Probes Z25105) as a murine Mab control for anti-Shh 5E1 Mab34.” left out

[7] = 1:1 binding model, n.d stands for no binding detected

displacement of Ptch1 L2-like peptide from Shh by ^13C, ^1H-HSQC [1]: displaces Ptch1 L2-like peptide from Shh
Molecule: GCGMITLDDMEEMDGLSDFCG (disulfide 2-20 (inferred); listed as Homo sapiens) [Hhip1β12 L2 peptide]

EC50 [3]: 16 nM
Molecule: Ihh: human Indian Hedgehog, residues 29-202
competition of Shh649 binding to Ptch1 cells (in words) [2]: dose dependent manner

binding to 293 cells at high concentrations [6]: bind nonspecifically to 293 cells
B3: Hhip1β12-Fc: Fc-tagged Hhip1β12 (protein)
chain: SNYLDQMEEYDKVEEISRKHKHNCFCIQEVVSGLRQPVGALHSGDGSQRLFILEKEGYVKILTPEGEIFKEPYLDIHKLVQSGIKGGDERGLLSLAFHPNYKKNGKLYVSYTTNQERWAIGPHDHILRVVEYTVSRKNPHQVDLRTARVFLEVAELHRKHLGGQLLFGPDGFLYIILGDGMITLDDMEEMDGLSDFTGSVLRLDVDTDMCNVPYSIPRSNPHFNSTNQPPEVFAHGLHDPGRCAVDRHPTDININLTILCSDSNGKNRSSARILQIIKGKDYESEPSLLEFKPFSNGPLVGGFVYRGCQSERLYGSYVFGDRNGNFLTLQQSPVTKQWQEKPLCLGTSGSCRGYFSGHILGFGEDELGEVYILSSSKSMTQTHNGKLYKIVDPKRPLMPEECRATVQPAQTLTSECSRLCRNGYCTPTGKCCCSPGWEGDFCRTAKCEPACRHGGVCVRPNKCLCKKGYLGPQCE
modifications: left off: a dimerising Fc or GST
competition of Shh649 binding to Ptch1 cells (in words) [2]: inhibit Ptch1-specific Shh cell binding in a dose-dependent manner

Further lines, the molecule ahead of its results:

Molecule: T154I: type A1 brachydactyly mutant Ihh T154I
EC50 [3]: 330 nM

B1: D383R: Hhip L2 mutant of Hhip1β12 with D383 changed to R (protein)
chain: MLKMLSFKLLLLAVALGFFEGDAKFGERNEGSGARRRRCLNGNPPKRLKRRDRRMMSQLELLSGGEMLCGGFYPRLSCCLRSDSPGLGRLENKIFSVTNNTECGKLLEEIKCALCSPHSQSLFHSPEREVLERDLVLPLLCKDYCKEFFYTCRGHIPGFLQTTADEFCFYYARKDGGLCFPDFPRKQVRGPASNYLDQMEEYDKVEEISRKHKHNCFCIQEVVSGLRQPVGALHSGDGSQRLFILEKEGYVKILTPEGEIFKEPYLDIHKLVQSGIKGGDERGLLSLAFHPNYKKNGKLYVSYTTNQERWAIGPHDHILRVVEYTVSRKNPHQVDLRTARVFLEVAELHRKHLGGQLLFGPDGFLYIILGDGMITLDDMEEMRGLSDFTGSVLRLDVDTDMCNVPYSIPRSNPHFNSTNQPPEVFAHGLHDPGRCAVDRHPTDININLTILCSDSNGKNRSSARILQIIKGKDYESEPSLLEFKPFSNGPLVGGFVYRGCQSERLYGSYVFGDRNGNFLTLQQSPVTKQWQEKPLCLGTSGSCRGYFSGHILGFGEDELGEVYILSSSKSMTQTHNGKLYKIVDPKRPLMPEECRATVQPAQTLTSECSRLCRNGYCTPTGKCCCSPGWEGDFCRTAKCEPACRHGGVCVRPNKCLCKKGYLGPQCEQVDRNIRRVTRAGILDQIIDMTSYLLDLTSYIV
competition of Shh649 binding to Ptch1 cells (in words) [2]: no inhibition | IC50 fold change versus wildtype Hipβ12 ([4]; Gli-luciferase co-culture): ~13 fold | IC50 ([4]; Gli-luciferase co-culture): 57 nM | maximal inhibition ([4]; at saturating conditions): ~50% | Shh binding of Hhip1β12 mutants (in words) ([5]; bio-layer interferometry, compared with WT Hhip1β12): inability

B2: Hhip1β12: β-propeller-EGF1-EGF2 construct (SEQ ID NO:12), residues 193-667 of SEQ ID NO:2, lacking putative Fz domain (protein, listed as Homo sapiens)
chain: B3 chain
competition of Shh649 binding to Ptch1 cells (in words) [2]: inhibit Ptch1-specific Shh cell binding in a dose-dependent manner | IC50 ([4]; Gli-luciferase co-culture): 5 nM | Kd [5, 7]: 220 nM | koff × 10^−4 [5, 7]: 9.4 × 10^−4 [s^−1] | kon × 10^3 [5, 7]: 4.3 × 10^3 [M^−1 × s^−1] | binding to 293 cells at high concentrations [6]: bind nonspecifically to 293 cells
